{"source": "patent US20160368985A1", "about": "(published 2016)", "target": "7D8.RbIgG", "test": "SPR (Biacore)"}
{"binder": "CyFcRH5 (receptor) QFVRTYKSHFLQPPWTTVFRGERVNLTCKGFGFYSSQKTKWYYRHLGKEISRETQKNTLEVQESGEYRCQAQGSPLSSPVSLDFSSASLILQAPLSVFEGDSVVLRCRAKAEVTLKTTIYKNENVLAFLNKSTDFHISHASLKDNGAYRCTGYKETCCLVSSNTVKIQVQESFTRPVLRVSSFQPISGSPVTLTCETQLSLERSDVPLQFCFFRNDQMLGSGCSLSPKFRITAMWSKDSGSYWCKAATMCYDTTSNSLRSWIQVLIPASHPVLTLSPEKALNFEGTKVKLHCETQEDSLRTLYKFYHDGVPLRYKSVRCEKGASISFSLTTEHSGNYYCTADNGHGAKPSEAVSLSVTVPVSRPVLTLSSAEDLISEGAKLTLHCEAQRGSLPIVYQFHHENASLGNRSAHSAGGVAISFSLTADHSGNYYCTANNGFGPQRSEAVSLSITVPVSRPVLTLSSAEALTFEGATVTLYCEVQRGSPRILYQFYHEDVPLGSNSTPSVGKVSFSFSLTAAHSGNYYCTADNGFGPQRSEAVSLFVTVPVSRPILTLRVPRAQAVVGDLLELRCEALRGSPPIMYWFYHEDVTLGSSSVPSGGEASFNLSLTAEHSGNYSCEANNGLVAQHSDTISLSVIVPVSRPILTFRAPRAQAVVGDLLELHCEALRGSSPILYWFYHEDVTLGKISAPSGGGAYFNLSLTTEHSGIYSCEADNGLEAQRSEMVTLKVAVPVSRPVLTLRAPRAQVAVGDLLELHCEALRGSPLILYQFYHEDVTLGNSSALSGGAFFNLSLTAEHGNYSCEADNGLGAQRSETVTLYLTGLTENRSGPVATG", "values": [{"measurement": "Kd", "value": 1.89, "unit": "nM"}]}
